In publication PMC2731897:

What was measured:
Assay in all cases: EMSA
[1] = target: T1, GroEL1 (untagged) (Mycobacterium tuberculosis) (UniProt P9WPE9)
T1 sequence: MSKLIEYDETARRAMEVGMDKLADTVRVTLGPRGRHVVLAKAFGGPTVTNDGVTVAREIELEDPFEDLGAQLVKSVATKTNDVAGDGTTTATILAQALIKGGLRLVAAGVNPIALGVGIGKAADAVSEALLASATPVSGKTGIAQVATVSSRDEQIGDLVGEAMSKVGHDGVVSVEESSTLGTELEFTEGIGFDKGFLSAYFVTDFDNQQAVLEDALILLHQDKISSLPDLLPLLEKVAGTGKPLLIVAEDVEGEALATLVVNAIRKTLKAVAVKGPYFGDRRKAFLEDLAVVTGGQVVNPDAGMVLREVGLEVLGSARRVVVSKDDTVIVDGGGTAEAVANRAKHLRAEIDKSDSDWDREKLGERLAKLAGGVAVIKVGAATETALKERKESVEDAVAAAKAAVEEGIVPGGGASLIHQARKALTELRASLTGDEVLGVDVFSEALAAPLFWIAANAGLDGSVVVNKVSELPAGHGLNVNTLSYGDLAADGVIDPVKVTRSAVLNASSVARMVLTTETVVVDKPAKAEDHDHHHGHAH

GroEL1 (untagged) [2] = target: T2, GroEL1 (untagged) (Mycobacterium tuberculosis, UniProt P9WPE9 1-539)
T2 sequence: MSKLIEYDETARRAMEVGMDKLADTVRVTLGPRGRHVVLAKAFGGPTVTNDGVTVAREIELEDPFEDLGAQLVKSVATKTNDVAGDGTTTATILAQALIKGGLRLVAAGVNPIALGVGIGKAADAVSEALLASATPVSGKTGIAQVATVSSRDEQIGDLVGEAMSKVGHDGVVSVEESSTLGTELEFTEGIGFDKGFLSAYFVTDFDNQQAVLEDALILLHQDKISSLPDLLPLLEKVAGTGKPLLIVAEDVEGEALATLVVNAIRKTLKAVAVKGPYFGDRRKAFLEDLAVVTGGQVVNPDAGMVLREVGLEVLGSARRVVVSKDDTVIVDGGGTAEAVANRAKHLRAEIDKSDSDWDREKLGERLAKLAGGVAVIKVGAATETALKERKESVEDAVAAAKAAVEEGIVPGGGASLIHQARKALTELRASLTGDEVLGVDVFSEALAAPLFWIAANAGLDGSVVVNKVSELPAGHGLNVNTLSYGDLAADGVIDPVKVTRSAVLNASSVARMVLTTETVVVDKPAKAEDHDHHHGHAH

GroEL1 (untagged) [3] = target: T2, GroEL1 (untagged); remark: listed apart in the source

Question: “TATATAGTCGACCCAGGTGATTCGGCATTCGTCCGCGCCCTCGCGCCGTCGTCGCGGGTGCCGACGCAGGGGTTAGCCGATTGCCATCTAGCACTCTATACATGAGAGTGCTAGCACTCAAGGGCGCCCCCTTGCTTCCTGGTTGCCAGCGTGTCTCTAGATATATA (double strand) [groES upstream region, 140 bp]” was tested. Which binding [1] did it give?
Answer: binds

B1: MutO6 ss (ssDNA)
DNA: TTAGCCGATTGCCATCTAGCACTCTATACATGTTGGAACGGACACTCAAGGGCGCCCCCT
Question: Does B1 bind (GroEL1 (untagged) [2])?
Answer: binds

B2: CIRCE2FR (dsDNA)
DNA 1: TTAGCCGATTGCCATCTAGCACTCTATACATGAGAGTGCTAGCACTCAAGGGCGCCCCCT
DNA 2: AGGGGGCGCCCTTGAGTGCTAGCACTCTCATGTATAGAGTGCTAGATGGCAATCGGCTAA
Question: With B2 as the molecule, how does the Kd (GroEL1 (untagged) [3]) read?
Answer: 143 nM

B3: CIRCE2F ss (ssDNA)
DNA: TTAGCCGATTGCCATCTAGCACTCTATACATGAGAGTGCTAGCACTCAAGGGCGCCCCCT
Question: Does B3 bind (GroEL1 (untagged) [2])?
Answer: binds

B4: MutO3 ss (ssDNA)
DNA: TTAGCCGATTGCCATTCCTGTACAAATACATGAGAGTGCTAGCACTCAAGGGCGCCCCCT
Question: Does B4 bind (GroEL1 (untagged) [2])?
Answer: binds

B5: MutO4 ss (ssDNA)
DNA: GTGCACTTAGCCGATTGCCATTCTATACATGAGACACTCAAGGGCGCCCCCTCTAGCTAG
Question: Does B5 bind (GroEL1 (untagged) [2])?
Answer: binds

B6: MutO7 ss (ssDNA)
DNA: TTAGCCGATTGCCATCACGCACTACGTAGTGTCTATGTATCGATCTCAAGGGCGCCCCCT
Question: Does B6 bind (GroEL1 (untagged) [2])?
Answer: binds

B7: MutO5 ss (ssDNA)
DNA: TTAGCCGATTGCCATCTAGCACTCTGCGCCCCCTATACATGAGAGTGCTAGCACTCAAGG
Question: Does B7 bind (GroEL1 (untagged) [2])?
Answer: binds

B8: MutO2 ss (ssDNA)
DNA: ATACTTAGCCGATTGCCATCTAGCACTCTAGAGTGCTAGCACTCAAGGGCGCCCCCTATG
Question: Does B8 bind (GroEL1 (untagged) [2])?
Answer: binds
